Experimental data: patent EP0871495B1

Target: MHC class II antigen on the Raji B cell line
Assay: cell-based or functional assay

Question: With “CD4:ζ chimera (CD4 extracellular domain fused to human T cell receptor ζ chain)” as the substance, how does the cytolysis (51Cr release) of Raji (MHC class II+) cells by CTL expressing CD4:ζ read?
Answer: 5 % cytolysis
